The values that follow come from paper PMC7817830.

Test [1] deals with Flag-tagged WT PKM2 expressed in 32D BCR-ABL cells (UniProt P14618). Kind of test: SEC; cell lysate of 32D BCR-ABL cells on Superdex 200 10/300GL, 50 mM phosphate, 0.15 M NaCl, pH 7.2; fractions by UV absorbance and western blot.
In test [2] the target is recombinant His-tagged PKM2 after the in vitro SUMOylation reaction (SUMO1 conjugated at K270) (UniProt P14618). Kind of test: SEC; samples of the in vitro SUMOylation reaction (recombinant PKM2 or PKM1 with or without purified SUMO1, E1 and E2); UV absorbance and western blot of the fractions with anti-PKM2 or anti-PKM1; tetramer, dimer, monomer by molecular weight. For orientation: SEC sorts molecules by how far they enter the pores of the column.

Chain of Flag-tagged WT PKM2 expressed in 32D BCR-ABL cells, P14618 1-531 (enzyme; other documents disagree on this pair) (P14618 whole entry): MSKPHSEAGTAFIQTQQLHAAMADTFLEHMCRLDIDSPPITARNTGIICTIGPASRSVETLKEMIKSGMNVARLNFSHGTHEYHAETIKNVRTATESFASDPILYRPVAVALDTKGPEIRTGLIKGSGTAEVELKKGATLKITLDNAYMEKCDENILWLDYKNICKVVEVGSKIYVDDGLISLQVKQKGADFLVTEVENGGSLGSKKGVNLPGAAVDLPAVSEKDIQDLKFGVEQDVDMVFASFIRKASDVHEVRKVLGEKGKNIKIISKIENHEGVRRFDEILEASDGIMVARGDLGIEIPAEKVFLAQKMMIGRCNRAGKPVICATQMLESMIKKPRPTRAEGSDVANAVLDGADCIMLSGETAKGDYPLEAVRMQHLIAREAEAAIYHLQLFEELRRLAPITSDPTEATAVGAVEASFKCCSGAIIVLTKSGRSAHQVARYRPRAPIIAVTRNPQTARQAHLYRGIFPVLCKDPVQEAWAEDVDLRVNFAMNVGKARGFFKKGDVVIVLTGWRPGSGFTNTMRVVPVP
Chain of recombinant His-tagged PKM2 after the in vitro SUMOylation reaction (SUMO1 conjugated at K270) (from UniProt P14618 1-531; P63165 1-97) (enzyme) (P14618 whole entry): as above
Chain of recombinant His-tagged PKM2 after the in vitro SUMOylation reaction (SUMO1 conjugated at K270) (from UniProt P14618 1-531; P63165 1-97) (enzyme) (P63165 1-97): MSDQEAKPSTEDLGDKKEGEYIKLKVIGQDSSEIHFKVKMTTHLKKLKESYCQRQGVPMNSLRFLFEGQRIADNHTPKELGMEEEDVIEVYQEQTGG

In turn, “Flag-tagged WT PKM2 expressed in 32D BCR-ABL cells, P14618 1-531 (enzyme; other documents disagree on this pair)” registered a stoichiometry N in test [1] of 2.
Turning to “recombinant His-tagged PKM2 after the in vitro SUMOylation reaction (SUMO1 conjugated at K270) (from UniProt P14618 1-531; P63165 1-97) (enzyme)”, the stoichiometry N in test [2] amounted to 2.

For orientation: stoichiometry N means the number of molecules, sites or subunits per partner or assembly.
